Source: patent publication US20060246470A1 (published 2006)

Columns and labels:
GST-ER, P03372 = target: T1, GST-ER, P03372
T1 chain: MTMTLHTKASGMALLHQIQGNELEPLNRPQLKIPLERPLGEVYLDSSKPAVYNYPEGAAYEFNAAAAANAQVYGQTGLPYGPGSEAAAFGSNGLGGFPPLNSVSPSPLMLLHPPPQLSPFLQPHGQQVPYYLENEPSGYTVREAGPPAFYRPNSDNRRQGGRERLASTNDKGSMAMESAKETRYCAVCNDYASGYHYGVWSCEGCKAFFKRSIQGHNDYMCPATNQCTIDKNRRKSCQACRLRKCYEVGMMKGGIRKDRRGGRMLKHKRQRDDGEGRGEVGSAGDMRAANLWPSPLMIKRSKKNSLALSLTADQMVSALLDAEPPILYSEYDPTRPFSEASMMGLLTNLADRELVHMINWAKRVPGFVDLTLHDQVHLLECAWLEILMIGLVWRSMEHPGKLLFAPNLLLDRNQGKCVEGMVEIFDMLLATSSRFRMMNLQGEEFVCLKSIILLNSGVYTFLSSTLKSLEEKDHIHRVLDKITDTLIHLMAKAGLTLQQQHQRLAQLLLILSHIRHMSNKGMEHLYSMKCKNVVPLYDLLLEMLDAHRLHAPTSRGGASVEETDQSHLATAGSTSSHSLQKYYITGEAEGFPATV

[1] = target: T2, GST-RhoGDI (aa:1-81), P52565
T2 chain: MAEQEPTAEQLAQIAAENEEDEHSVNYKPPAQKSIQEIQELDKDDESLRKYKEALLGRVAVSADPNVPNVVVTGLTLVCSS

GST-RhoGDI, P52565 = target: T3, GST-RhoGDI, P52565
T3 chain: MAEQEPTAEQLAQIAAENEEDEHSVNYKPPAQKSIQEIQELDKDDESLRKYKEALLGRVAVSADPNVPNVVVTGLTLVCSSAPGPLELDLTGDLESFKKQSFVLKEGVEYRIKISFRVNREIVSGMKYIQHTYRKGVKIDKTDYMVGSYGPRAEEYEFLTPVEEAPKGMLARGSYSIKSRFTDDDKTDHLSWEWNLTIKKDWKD

[2] = target: T4, HER2, endogenous in MCF-7 cells (human, UniProt P04626 23-1255); assay: immunoprecipitation and immunoblot, MCF-7 cells
T4 construct: also called HER-2/neu
Procedure: In Panel B, immunoprecipitation of E or T treated MCF-7 cells was performed followed by immunoblot analysis.

[3] = target: T5, in vitro translated, 35S-incorporated ER (UniProt P03372 1-595, 35S-incorporated (in vitro translated)); assay: GST pull-down with or without E2 or Tamoxifen (FIG. 29)
T5 construct: also called ERα
T5 sequence (looked up): T1 chain

B1: GST-p300 HAT (protein)
chain: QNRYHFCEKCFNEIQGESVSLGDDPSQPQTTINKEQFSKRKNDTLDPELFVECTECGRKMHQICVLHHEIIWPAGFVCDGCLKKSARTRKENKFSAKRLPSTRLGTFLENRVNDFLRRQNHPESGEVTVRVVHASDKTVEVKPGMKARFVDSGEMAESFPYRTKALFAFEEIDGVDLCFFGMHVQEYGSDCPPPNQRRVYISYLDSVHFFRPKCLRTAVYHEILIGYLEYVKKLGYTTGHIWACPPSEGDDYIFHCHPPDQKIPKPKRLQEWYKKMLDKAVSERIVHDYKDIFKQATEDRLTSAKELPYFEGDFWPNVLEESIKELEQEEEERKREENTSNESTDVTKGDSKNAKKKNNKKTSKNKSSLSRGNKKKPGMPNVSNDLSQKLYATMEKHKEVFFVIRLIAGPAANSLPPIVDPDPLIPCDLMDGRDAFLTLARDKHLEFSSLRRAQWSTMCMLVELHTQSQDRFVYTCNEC
competitive in vitro acetylation assay (GST-ER, P03372): Purified GST-ER was acetylated by GST-p300HAT in the presence of increasing amount of GST-RhoGDI.
in vitro acetylation assay (14C-acetyl-CoA, SDS-PAGE, autoradiography) [1]: The result indicates that N-terminal of RhoGDI contains acetylation site(s).
in vitro acetylation assay (14C-acetyl-CoA, SDS-PAGE, autoradiography) (GST-RhoGDI, P52565): RhoGDI, like ERα, is acetylated by p300.

B2: EBP50 (ezrin binding protein 50), endogenous in MCF-7 cells (other, human, UniProt O14745 2-358, looked up)
chain: SADAAAGAPLPRLCCLEKGPNGYGFHLHGEKGKLGQYIRLVEPGSPAEKAGLLAGDRLVEVNGENVEKETHQQVVSRIRAALNAVRLLVVDPETDEQLQKLGVQVREELLRAQEAPGQAEPPAAAEVQGAGNENEPREADKSHPEQRELRPRLCTMKKGPSGYGFNLHSDKSKPGQFIRSVDPDSPAEASGLRAQDRIVEVNGVCMEGKQHGDVVSAIRAGGDETKLLVVDRETDEFFKKCRVIPSQEHLNGPLPVPFTNGEIQKENSREALAEAALESPRPALVRSASSDTSEELNSQDSPPKQDSTAPSSTSSSDPILDFNISLAMAKERAHQKRSSKRAPQMDWSKKNELFSNL
notes: also called NHE-RF; SLC9A3R1
binding result [2]: binds

B3: in vitro translated RhoGDI (other, UniProt P52565 1-204, looked up)
chain: T3 chain
binding result [3]: no binding
